This is an account of results in patent US20250179204A1.

In general, EC50 (read off the curve) refers to the concentration at which the effect is half-maximal. One may read the Kd as the equilibrium constant for the complex coming apart. Read a low Kd as higher affinity.

Assay [1] addresses human FcγRIIIA soluble ectodomain (ELISA) (human) (UniProt P08637). The assay can be described thus: ELISA, plate-bound human FcgRIIIA soluble ectodomain, absorbance 450 nm against log(conc. ug/ml).
The next assay concerns the target huFcγRIIIA F158 (human) (UniProt P08637). The assay can be described thus: SPR, Biacore T200. (In general: SPR reads the build-up and loss of mass on a sensor chip optically.)
Assay [2] addresses human FcγRIIB (human) (UniProt P31994). The assay can be described thus: SPR, Biacore T200.
In the next assay the target is huFcγRIIA R131 (human) (UniProt P12318). The assay can be described thus: SPR, Biacore T200.
Chain of huFcγRIIA R131 (human) (P12318 36-218 H167R limits assumed): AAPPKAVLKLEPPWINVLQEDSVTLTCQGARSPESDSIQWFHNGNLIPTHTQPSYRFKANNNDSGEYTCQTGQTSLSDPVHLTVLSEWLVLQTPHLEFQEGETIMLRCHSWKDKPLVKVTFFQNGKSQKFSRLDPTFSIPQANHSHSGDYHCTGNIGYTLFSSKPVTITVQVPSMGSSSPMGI
The target of assay [3] is recombinant mouse GITR (plate-bound) (mouse) (UniProt O35714). The assay can be described thus: ELISA, plate-bound recombinant mouse GITR, absorbance 450 nm against log(conc. ug/ml). In general terms: In an ELISA, binding on a coated surface is turned into a signal by an enzyme label.
Chain of recombinant mouse GITR (plate-bound) (mouse) (O35714 20-153 limits assumed): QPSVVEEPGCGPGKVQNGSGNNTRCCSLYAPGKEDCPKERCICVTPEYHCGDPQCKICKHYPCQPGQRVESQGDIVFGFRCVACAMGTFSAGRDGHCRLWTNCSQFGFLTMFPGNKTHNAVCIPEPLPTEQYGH
Assay [4] shares this target. In words: ELISA, plate-bound mGITR, antibody at ˜10^3 µg/ml as printed.
Assay [5] has the same target. In words: ELISA, plate-bound mGITR, plateau from ˜10-1.5 µg/ml as printed.
Assay [6] shares this target. In words: ELISA, plate-bound mouse GITR, delta OD against Log Ab con (ug/ml).
The target of assay [7] is human FcγRIIB (human) (UniProt P31994). In words: ELISA, plate-bound human FcgRIIB soluble ectodomain, absorbance 450 nm against log(conc. ug/ml).
Chain of human FcγRIIB (human) (P31994 43-217): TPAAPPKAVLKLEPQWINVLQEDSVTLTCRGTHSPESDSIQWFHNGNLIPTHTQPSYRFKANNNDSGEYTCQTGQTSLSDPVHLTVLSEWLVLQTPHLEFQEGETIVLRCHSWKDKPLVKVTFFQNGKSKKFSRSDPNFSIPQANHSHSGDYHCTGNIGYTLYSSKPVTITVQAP
For assay [8], the target named is human FcγRIIIA soluble ectodomain (ELISA) (human) (UniProt P08637). In words: ELISA, plate-bound human FcgRIIIA (receptor named in the legend paragraph 150, not on the sheet), absorbance 450 nm against log(conc. ug/ml).
Chain of human FcγRIIIA soluble ectodomain (ELISA) (human) (P08637 17-208): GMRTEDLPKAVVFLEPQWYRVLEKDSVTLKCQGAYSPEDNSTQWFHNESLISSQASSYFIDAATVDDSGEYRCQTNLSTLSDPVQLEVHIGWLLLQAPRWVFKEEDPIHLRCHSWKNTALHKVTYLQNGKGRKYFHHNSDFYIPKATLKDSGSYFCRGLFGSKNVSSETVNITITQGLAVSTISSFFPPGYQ

Chain of huFcγRIIIA F158 (human) (P08637 17-208 limits assumed): as the sequence (P08637 17-208) above

Turning to “chimeric anti-mouse GITR antibody (DTA-1 Fab) human IgG1-GASDALIE”, the EC50 (read off the curve) in assay [1] was found to be 0.2 µg/mL; in [3], 0.01 µg/mL. The Kd is 2.23 µM with huFcγRIIIA F158 (human), 0.23 µM with human FcγRIIB (human) [2] and 0.05 µM with huFcγRIIA R131 (human). The Fold = KD(IgG1)/KD(Fc region variant) was found to be 14 fold with human FcγRIIB (human) [2] and 24.5 fold with huFcγRIIA R131 (human).

In the case of “chimeric anti-mouse GITR antibody (DTA-1 Fab) with human IgG1”, the Fold = KD(IgG1)/KD(Fc region variant) with huFcγRIIIA F158 (human) and with huFcγRIIA R131 (human) was 1 fold in each case. Moreover, the Kd in the assay with huFcγRIIIA F158 (human) turned out to be 6.7 µM; with human FcγRIIB (human) [2] it was 3.01 µM; in the assay with huFcγRIIA R131 (human), 1.16 µM. Further, the EC50 (read off the curve) in [3] came out at 0.03 µg/mL.

Turning to “monospecific mIgG1-N297A anti-mouse GITR antibody (DTA-1 NA)”, in assay [4], the OD450 came out at 0.6 OD450. The OD450 at plateau in assay [5] was 0.9 OD450. Besides, the EC50 (read off the curve) in assay [6] came to 0.004 µg/mL.

In the assay with huFcγRIIA R131 (human), “chimeric anti-mouse GITR antibody (DTA-1 Fab) human IgG1-V11” returned a Kd of 3.84 µM. For the same substance, the EC50 (read off the curve) with human FcγRIIB (human) [7] was determined as 0.4 µg/mL; in assay [3], 0.02 µg/mL.

Regarding “chimeric anti-mouse GITR antibody (DTA-1 Fab) human IgG1-GAALIE”, in assay [3], the EC50 (read off the curve) amounted to 0.02 µg/mL.

With “chimeric anti-mouse GITR antibody (DTA-1 Fab) human IgG1-N297A”, in [3], the half-maximal effective concentration (EC50 (read off the curve)) was found to be 0.02 µg/mL.

As to “chimeric anti-mouse GITR antibody (DTA-1 Fab) human IgG1-G236A”, the Kd in the assay with human FcγRIIB (human) [2] amounted to 4.38 µM; in the assay with huFcγRIIA R131 (human), 0.12 µM. Moreover, the EC50 (read off the curve) in [3] was 0.02 µg/mL.

Regarding “chimeric anti-mouse GITR antibody (DTA-1 Fab) afucosylated human IgG1-G236A”, the EC50 (read off the curve) in [8] was found to be 0.8 µg/mL; in assay [3], 0.01 µg/mL.

With “chimeric anti-mouse GITR antibody (DTA-1 Fab) afucosylated human IgG1”, the Kd with huFcγRIIIA F158 (human) was determined as 0.58 µM; with huFcγRIIA R131 (human), 1.16 µM. The EC50 (read off the curve) in assay [3] was 0.02 µg/mL.
